Patent publication US20040171019

Biological target: T1, Suc-AEPF-pNA peptide substrate
T1 chain: AEPF

B1: mutant PIN1 PPIase (K77Q/K82Q) (protein)
chain: GSHMGKNGQGEPARVRCSHLLVKHSQSRRPSSWRQEQITRTQEEALELINGYIQKIKSGEEDFESLASQFSDCSSAKARGDLGAFSRGQMQKPFEDASFALRTGEMSGPVFTDSGIHIILRTE
Km: The Km for this substrate was much higher than 100 µM ([S]<<Km)
rate (rate constant k of the peptidyl-prolyl isomerase reaction): both wild type human PIN1 and mutant PIN1 PPIAse, at 0.033 nM with 100 µM Suc-AEPF-pNA, had a rate of 0.2
